{
  "source": "patent US20230183177A1",
  "about": "“ENANTIOSELECTIVE CHEMO-ENZYMATIC SYNTHESIS OF OPTICALLY ACTIVE AMINO AMIDE COMPOUNDS” (priority 2020, published 2023)",
  "molecules": {"B1": {"name": "KoNHase: nitrile hydratase from Klebsiella oxytoca (protein, listed as Klebsiella oxytoca)", "alpha": "MSHKHDHDHTHPPVDIELRVRALESLLQEKGLIDPAALDELIDTYEHKVGPRNGAQVVARAWSDPEYKRRLMENATAAIAELGFSGIQGEDMLVVENTPDVHNVTVCTLCSCYPWPVLGLPPVWYKSAPYRSRIVIDPRGVLAEFGLHIPENKEIRVWDSSAELRYLVLPERPAGTEGWSEAQLSELITRDSMIGTGVVSAP", "beta": "MNGIHDLGGMHGLGPIPTEENEPYFHHEWERRVFPLFASLFVGGHFNVDEFRHAIERMAPTEYLQSSYYEHWLHAFETLLLAKGAITVEELWGGAKPAPCKPGTPVLTQEMVSMVVSTGGSARVSHDVAPRFRVGDWVRTKNFNPTTHTRLPRYARDKVGRIEIAHGVFITPDTAAHGLGEHPQHVYSVSFTAQALWGEPRPDKVFIDLWDDYLEEA"}},
  "key": {"[1]": {"assay": "Biocatalytic conversions with target substrate rac-1 by NHase-CFE or cells, chiral HPLC analysis", "format": "biochemical", "conditions": "for conversion / e.e. for (S): bioconversion of 100 mM rac-1; for conversion [%]: 300 rpm overnight; for eeP [%]: excess of (S); for Conv. [%]: NHase-CFE, overnight"}, "[2]": {"assay": "Substrate stability experiments: decomposition of rac-1 at different pH (Feigl-Anger paper, HPLC)", "format": "physicochemical", "method": ". In addition, the substrate was dissolved in ethanol as control. 100 μL of the rac-1 solutions were pipetted into a 96-well micro titer plate and covered with Feigl-Anger filter paper. Color development was documented by taking pictures (see FIG. 3).\nTo investigate the velocity of rac-1 decomposition at different pH, rac-1 was dissolved in different buffer, ranging from pH 5 to pH 10, and extracted immediately, after 2 and after 60 min, respectively, with 1 volume ethyl acetate. Extracts were dried over Na2SO4 and the supernatant evaporated using a vacuum centrifuge. The remaining substances (including rac-1) were dissolved in 100 μL of ethanol.\n(R)- and (S)-1 were separated by a Chiralpak AD-H using n-heptane and ethanol in a ratio 90:10 as the mobile phase, at a flow rate of 1 mL/min for 8 min. The compounds were detected at 210 nm (DAD). Retention times of (R)- and (S)-1 were 4.2 min and 4.7 min, respectively."}},
  "data": [
    {"molecule": "CCC(C#N)N1CCCC1", "note": "(racemic) [rac-1, 2-(Pyrrolidin-1-yl)butanenitrile]", "values": [
      {"measurement": "conversion", "setting": "[1]", "value": 29.3, "unit": "%"},
      {"measurement": "e.e. for (S)", "setting": "[1]", "value": 92.8, "unit": "%"},
      {"measurement": "Percent (HPLC peak area vs zero value)", "setting": "[2]; pH 5, 2 min", "value": 57, "unit": "%"},
      {"measurement": "Percent (HPLC peak area vs zero value)", "setting": "[2]; pH 5, 1 hour", "value": 32, "unit": "%"},
      {"measurement": "Percent (HPLC peak area vs zero value)", "setting": "[2]; pH 6, 2 min", "value": 54, "unit": "%"},
      {"measurement": "Percent (HPLC peak area vs zero value)", "setting": "[2]; pH 6, 1 hour", "value": 23, "unit": "%"},
      {"measurement": "Percent (HPLC peak area vs zero value)", "setting": "[2]; pH 6.5, 2 min", "value": 47, "unit": "%"},
      {"measurement": "Percent (HPLC peak area vs zero value)", "setting": "[2]; pH 6.5, 1 hour", "value": 22, "unit": "%"},
      {"measurement": "Percent (HPLC peak area vs zero value)", "setting": "[2]; pH 7, 2 min", "value": 57, "unit": "%"},
      {"measurement": "Percent (HPLC peak area vs zero value)", "setting": "[2]; pH 7, 1 hour", "value": 44, "unit": "%"},
      {"measurement": "Percent (HPLC peak area vs zero value)", "setting": "[2]; pH 7.5, 2 min", "value": 66, "unit": "%"},
      {"measurement": "Percent (HPLC peak area vs zero value)", "setting": "[2]; pH 7.5, 1 hour", "value": 50, "unit": "%"},
      {"measurement": "Percent (HPLC peak area vs zero value)", "setting": "[2]; pH 9, 2 min", "value": 83, "unit": "%"},
      {"measurement": "Percent (HPLC peak area vs zero value)", "setting": "[2]; pH 9, 1 hour", "value": 87, "unit": "%"},
      {"measurement": "Percent (HPLC peak area vs zero value)", "setting": "[2]; pH 10, 2 min", "value": 78, "unit": "%"},
      {"measurement": "Percent (HPLC peak area vs zero value)", "setting": "[2]; pH 10, 1 hour", "value": 86, "unit": "%"}
    ]},
    {"molecule": "CC[C@@H](C(N)=O)N1CCCC1=O", "note": "[compound 4, (S)-2-(2-oxopyrrolidin-1-yl)butane amide, reference compound]", "values": [
      {"measurement": "conversion", "setting": "[1]", "value": 51.8, "unit": "%"},
      {"measurement": "e.e. for (S)", "setting": "[1]", "value": 92.1, "unit": "%"}
    ]},
    {"molecule": "B1", "values": [
      {"measurement": "enantioselectivity for (S)-2", "setting": "[1]", "value": 78, "unit": "%"},
      {"measurement": "conversion [%]", "setting": "[1]; Table 4: 10 mM rac-1, NHase-CFE, 500 μL, pH 7.2, 25° C.", "value": 5.3, "unit": "%"},
      {"measurement": "conversion [%]", "setting": "[1]; Table 5: 10 mM rac-1, NHase-CFE, pH 7.2, 37° C.", "value": 4.4, "unit": "%"},
      {"measurement": "conversion [%]", "setting": "[1]; Table 5: 10 mM rac-1, NHase-CFE, pH 7.2, 50° C.", "value": 3.8, "unit": "%"},
      {"measurement": "eeP [%]", "setting": "[1]; Table 5: 37° C., —^a: only (S)-amide was detected", "value": "83 (S) %"},
      {"measurement": "eeP [%]", "setting": "[1]; Table 5: 50° C., —^a: only (S)-amide was detected", "value": "78 (S) %"},
      {"measurement": "Conv. [%]", "setting": "[1]; Table 6: 10 mM substrate, 25° C., pH 7.2", "value": 5.3, "unit": "%"},
      {"measurement": "eeP [%]", "setting": "[1]; Table 6: 10 mM substrate", "value": "79 (S) %"},
      {"measurement": "Conv. [%]", "setting": "[1]; Table 6: 50 mM substrate, 25° C., pH 7.2", "value": 6.2, "unit": "%"},
      {"measurement": "eeP [%]", "setting": "[1]; Table 6: 50 mM substrate", "value": "79 (S) %"},
      {"measurement": "Conv. [%]", "setting": "[1]; Table 6: 100 mM substrate, 25° C., pH 7.2", "value": 2.6, "unit": "%"},
      {"measurement": "eeP [%]", "setting": "[1]; Table 6: 100 mM substrate", "value": "75 (S) %"},
      {"measurement": "Enantioselectivity eeP [%]", "setting": "[1]; pH 7.2", "value": "79 (S) %"},
      {"measurement": "enantiomeric excess of the product for (S)-2", "setting": "[1]; time study: 20 mM substrate, CFE, 25° C., pH 7.2", "value": 81, "unit": "%"},
      {"measurement": "activity after cobalt pre-incubation", "setting": "1 or 2 mM CoCl2, 2 h, 25° C.", "value": "lower activity than the control reaction"},
      {"measurement": "activity towards methacrylonitrile (MAN) hydrolysis", "setting": "NHase-CFE, 114 mM substrate, pH 7.2, 25° C.", "value": "high activity"},
      {"measurement": "stability after longer incubation at high pH", "setting": "incubated at pH 9 or 9.5, 25° C., then MAN assay", "value": "loses activity with time at pH 9.5"},
      {"measurement": "activity at high pH", "setting": "methacrylonitrile hydration, carbonate buffer pH 10", "value": "still active at pH 10"},
      {"measurement": "thermal stability at 37° C.", "setting": "pH 8", "value": "seem stable"}
    ]}
  ]
}
